The record followed here is patent publication US20090191195A1 (MacroGenics, published 2009).

This assay concerns the target T1, human FcγRIIB (human, UniProt P31994 43-310).
T1 construct: whole, on cells; Native receptor on human cells or in frozen tissue sections; also called CD32B
T1 sequence (looked up): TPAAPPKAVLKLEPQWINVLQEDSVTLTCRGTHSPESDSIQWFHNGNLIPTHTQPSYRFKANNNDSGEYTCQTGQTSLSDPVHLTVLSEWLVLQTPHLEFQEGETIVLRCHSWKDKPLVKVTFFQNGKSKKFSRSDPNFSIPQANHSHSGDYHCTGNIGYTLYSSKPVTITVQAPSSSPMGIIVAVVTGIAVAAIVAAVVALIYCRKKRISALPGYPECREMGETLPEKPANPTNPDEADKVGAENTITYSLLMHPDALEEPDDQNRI
Description: immunohistochemistry, frozen lymph node, patient MG04-CHTN-19; grade = share of positive cells. As to the method:
The remaining portions of these samples were placed in cryomolds and embedded in OCT cryocompound (Tissue-Tek). Once the blocks were ready, each was sectioned under a Cryostat (Leica Microsystems) at 6 microns. The slides were placed in 4° C. acetone and fixed for 10 minutes. Hours after fixation the slides were air dried and washed with phosphate buffer saline (PBS). Then endogenous peroxide activity was blocked by a 30 minute incubation in a 0.3% hydrogen peroxide solution. The slides were washed in PBS and incubated for 30 minutes with 10% normal goat serum in 2% normal human serum. After this step, the slides were divided in two groups. Two monoclonal antibodies were utilize and incubated on the same tissue in parallel, an anti-CD20 (1F5—a hybridoma, ATCC No. HB-9645, purified at Macrogenics) and the murine monoclonal anti-CD32B antibody, 2B6. Each group was incubated with one monoclonal antibody and their respective Isotype control, IgG1 (BD Biosciences, San Jose, Calif.) for the 2B6/anti-CD32B group and IgG2a (BD Biosciences) for the 1F5/anti-CD20 group. Mouse IgG1 and murine IgG2a were used as Isotype controls for anti-CD32B and anti-CD20, respectively. After one hour of incubation at room temperature, the slides were washed in PBS and incubated with a secondary antibody Goat anti Mouse labeled peroxidase (Jackson ImmunoResearch Laboratories, West Grove, Pa.). […]

B1: monoclonal antibody produced by clone 2B6 (ATCC accession number PTA-4591) (antibody, V domains shown)
VH: QVQLQQPVTELVRPGASVMLSCKASDYPFTNYWIHWVKQRPGQGLEWIGVIDPSDTYPNYNKKFKGKATLTVVVSSSTAYMQLSSLTSDDSAVYYCARNGDSDYYSGMDYWGQGTSVTVSS
VL: DILLTQSPAILSVSPGERVSFSCRTSQSIGTNIHWYQQRTNGFPRLLIKNVSESISGIPSRFSGSGSGTDFILSINSVESEDIADYYCQQSNTWPFTFGGGTKLEIK
notes: Mouse hybridoma antibody; mouse IgG1 was used as its isotype control; also called murine monoclonal anti-CD32B antibody, 2B6; anti-CD32B
B1: the binding result is listed as “binds”.
